In patent US20230047413A1:

Assays:
[1] = molecular target: PHF-tau (paired helical filament tau isolated from Alzheimer's disease brain) (human) (UniProt P10636); assay: SPR ProteOn, PHF-tau
[2] = molecular target: tau seeds from GFP-tauP301L-overexpressing HEK cells (UniProt P10636); assay: cell-based or functional assay
[3] = molecular target: tau seeds from cryopreserved human AD brain tissue (human) (UniProt P10636); assay: cell-based or functional assay
[4] = molecular target: tau seeds from spinal cords of P301S transgenic animals (human) (UniProt P10636); assay: cell-based or functional assay
[5] = molecular target: recombinant human wild-type tau (Example 1) (human) (UniProt P10636); assay: SPR Biacore, recombinant tau
[6] = molecular target: PHF-tau (paired helical filament tau isolated from Alzheimer's disease brain) (human) (UniProt P10636); assay: SPR ProteOn, PHF-tau capture-coupled via HT7, bivalent model

Chain of PHF-tau (paired helical filament tau isolated from Alzheimer's disease brain) (human) (P10636 other isoform, or with tags, fused parts or gaps limits assumed): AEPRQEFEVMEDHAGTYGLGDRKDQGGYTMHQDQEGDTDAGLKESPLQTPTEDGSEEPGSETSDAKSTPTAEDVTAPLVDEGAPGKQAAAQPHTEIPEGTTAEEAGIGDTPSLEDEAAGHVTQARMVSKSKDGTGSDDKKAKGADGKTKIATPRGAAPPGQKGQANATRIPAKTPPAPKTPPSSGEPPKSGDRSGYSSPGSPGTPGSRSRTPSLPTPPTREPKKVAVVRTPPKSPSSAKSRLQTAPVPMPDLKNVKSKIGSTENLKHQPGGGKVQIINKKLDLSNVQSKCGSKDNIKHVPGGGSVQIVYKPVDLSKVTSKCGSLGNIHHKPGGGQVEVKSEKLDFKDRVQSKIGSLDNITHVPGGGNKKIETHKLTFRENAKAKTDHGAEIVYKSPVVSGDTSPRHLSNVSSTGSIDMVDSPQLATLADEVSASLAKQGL
Chain of tau seeds from spinal cords of P301S transgenic animals (human) (P10636 other isoform, or with tags, fused parts or gaps P301S P301S): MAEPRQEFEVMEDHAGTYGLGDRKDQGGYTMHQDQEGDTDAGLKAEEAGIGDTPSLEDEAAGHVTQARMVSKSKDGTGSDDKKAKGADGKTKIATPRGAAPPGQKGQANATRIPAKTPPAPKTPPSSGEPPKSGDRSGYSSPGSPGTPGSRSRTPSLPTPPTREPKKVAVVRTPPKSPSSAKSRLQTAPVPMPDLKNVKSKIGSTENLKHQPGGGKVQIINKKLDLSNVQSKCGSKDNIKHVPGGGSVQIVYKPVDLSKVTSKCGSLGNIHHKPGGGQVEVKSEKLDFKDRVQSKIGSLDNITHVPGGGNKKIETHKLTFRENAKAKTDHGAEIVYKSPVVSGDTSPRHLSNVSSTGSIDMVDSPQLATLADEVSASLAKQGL
Chain of recombinant human wild-type tau (Example 1) (human) (P10636 other isoform, or with tags, fused parts or gaps limits assumed): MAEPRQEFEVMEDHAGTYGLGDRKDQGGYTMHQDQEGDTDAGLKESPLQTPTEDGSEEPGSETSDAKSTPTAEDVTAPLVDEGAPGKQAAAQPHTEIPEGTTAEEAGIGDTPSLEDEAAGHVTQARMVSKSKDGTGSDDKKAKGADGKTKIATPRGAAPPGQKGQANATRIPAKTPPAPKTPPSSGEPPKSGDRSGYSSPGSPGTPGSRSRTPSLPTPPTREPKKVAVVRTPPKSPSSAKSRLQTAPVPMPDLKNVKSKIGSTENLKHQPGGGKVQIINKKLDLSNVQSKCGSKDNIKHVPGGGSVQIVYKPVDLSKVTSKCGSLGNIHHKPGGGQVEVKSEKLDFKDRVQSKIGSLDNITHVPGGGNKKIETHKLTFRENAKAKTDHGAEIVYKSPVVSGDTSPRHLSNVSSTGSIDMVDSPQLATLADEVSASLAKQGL

Row | Kd [1] [nM] | koff [1] [s⁻¹] | kon [1] [M⁻¹ s⁻¹] | inhibition of K18 aggregate induction, BRET/GFP-tauP301L co-incubation assay, 300 nM antibody (% of negative control) [2] | FRET/human AD brain homogenate immunodepletion assay, 300 nM antibody (% of negative control) [3] | FRET/P301S spinal cord immunodepletion assay, 300 nM antibody (% of negative control) [4] | inhibition of K18 aggregate induction, FRET/P301S spinal cord co-incubation assay, 300 nM antibody (% of negative control) [4] | inhibition of K18 aggregate induction, BRET/GFP-tauP301L co-incubation assay, 166.67 nM antibody (% of negative control) [2] | inhibition of K18 aggregate induction, FRET/P301S spinal cord co-incubation assay, 89.99 nM antibody (% of negative control) [4] | Kd [5] [nM] | koff [5] [s⁻¹] | kon [5] [M⁻¹ s⁻¹] | Kd [6] [nM] | koff [6] [s⁻¹] | kon [6] [M⁻¹ s⁻¹] | Substance
1 | 25.8 | 0.023 | 889000 | – | – | – | – | – | – | – | – | – | – | – | – | AT8 Fab
2 | 0.092 | 0.000211 | 2.3e+06 | 10.5 | 80.7 | 96.7 | 26.4 | – | – | – | – | – | – | – | – | AT8 mAb (hyb) (antibody)
3 | 0.131 | 9.26e-05 | 706000 | – | 83 | 99.2 | – | 65.4 | 73.5 | 3.05 | 0.0118 | 3.86e+06 | 0.193 | 0.00011 | 569000 | HT7 (antibody)
